Eight molecules from patent US20250171542A1 (ADEPT THERAPEUTICS, published 2025) can be followed below.

The target in test [1] is T1, PD-L2 (Sino Biological, Cat #10292-H08H) (UniProt Q9BQ51 20-219).
T1 sequence (looked up): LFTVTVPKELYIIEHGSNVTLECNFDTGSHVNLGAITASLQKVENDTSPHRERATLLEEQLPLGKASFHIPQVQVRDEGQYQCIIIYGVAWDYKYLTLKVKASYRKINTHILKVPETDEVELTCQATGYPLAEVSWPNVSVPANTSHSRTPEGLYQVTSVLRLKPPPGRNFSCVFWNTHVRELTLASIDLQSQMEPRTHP
As to the kind of experiment: ELISA.

Test [2] has as its target T2, human PD-L1 expressed on cell surface (human, UniProt Q9NZQ7 19-290). As to the kind of experiment: cell-based or functional assay.
Test [3] addresses T3, human PD-L1-His (Sino Biological, Cat #10084-H08H) (human, UniProt Q9NZQ7 19-238).
T3 construct: Bought protein; also called human PD-L1 ECD-His; recombinant human PD-L1-His protein; not shown: His tag
In words: ELISA, coated human PD-L1-His. As to the method:
Briefly, Maxisorp plates (Nunc) were coated with 100 ul/well of 0.5 μg/ml human PD-L1-His (Sino Biological, Cat #10084-H08H) or cynomolgus PD-L1-His (Sino Biological, Cat. 90251-C08H) protein diluted in 1×PBS (GIBCO) overnight at 4° C. Plates were washed three times with 300 μl/well washing buffer (1×PBST, diluted from 20×PBST (Thermo Scientific) with distilled water)) and then blocked with 300 μl/well of blocking buffer (1×PBST/I % BSA) for 2 hours at RT on shaker (100 rpm). Plates were washed and added with 100 μl/well of testing antibodies, which were serial diluted with assay buffer (PBST/1% BSA). The antibodies were incubated at room temperature for 2 hours on plate shaker at 100 rpm. Plates were washed. One hundred microliter of horseradish peroxidase (HRP) conjugated detection antibody was added into each well and incubated at room temperature for 1 hour on plate shaker at 100 rpm. Plates were washed and added with 100 μl/well TMB substrate for color development at room temperature in dark for up to 10 minutes. After addition of 50 μl/well of stop solution (1N H₂SO₄), plates were read at 450 nm on a plate reader (SpectraMax M5).
Anti-HEL isotype control (Biolntron) was used as negative control.

Test [4] concerns the target T4, cynomolgus PD-L1-His (Sino Biological, Cat. 90251-C08H) (cynomolgus, UniProt Q9NZQ7 19-238 (human entry)).
T4 construct: Bought protein; also called Cyno PD-L1; Cynomolgus PD-L1 ECD-His; not shown: His tag
In words: BLI (Gator), cynomolgus PD-L1.

Test [5] deals with T3, human PD-L1-His (Sino Biological, Cat …). In words: BLI (Gator), antibody on HFC probe, human PD-L1-His in solution. As to the method: The affinity of the binding of the exemplary anti-PD-L1 antibodies of the present disclosure was determined. Assay was performed according to the protocol recommended by Gator or Gator Plus (Gator Bio Inc.). Briefly, human PD-L1-His (Sino Biological, Cat #10084-H08H) was serially diluted 4-fold, starting at 4 μg/ml. After three times of regeneration in generation buffer (Gator Bio, Cat #120012) and neutralization of HFC probe (Gator Bio, Cat #160003), 1 μg/ml of antibody to be tested in Q buffer (Gator Bio, Cat #120010) was immobilized onto HFC probe. After a baseline step, probe immobilized with antibody was dipped into antigen solutions. The association and dissociation of antigen from antibody was measured on BLI machine Gator. Affinity was calculated using Gator Bio analysis software.
Table 22 below summarizes the binding affinity to human PD-L1 using Gator.

In test [6] the target is T5, human PD-L1-mFc fusion protein (Sino Biological, Cat #10084-H05H) (human, UniProt Q9NZQ7 19-239).
T5 construct: Bought protein; also called human PD-L1 mouse Fc fusion protein; not shown: mouse Fc
T5 sequence (Q9NZQ7 19-239 limits assumed): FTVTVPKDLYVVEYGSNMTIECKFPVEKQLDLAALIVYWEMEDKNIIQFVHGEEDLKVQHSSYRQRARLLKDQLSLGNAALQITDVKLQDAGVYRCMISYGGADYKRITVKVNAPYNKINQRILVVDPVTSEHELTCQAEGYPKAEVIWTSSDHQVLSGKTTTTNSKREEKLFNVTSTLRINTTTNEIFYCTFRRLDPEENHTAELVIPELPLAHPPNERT
As to the kind of experiment: competition ELISA, coated human PD-L1-mFc, competitor human PD-1-His-hFc-Biotin. As to the method: Briefly, microplates were precoated with […] of human PD-L1-mFc fusion protein (Sino Biological, Cat #10084-H05H) diluted in 1×PBS (GIBCO) and incubated overnight at 4° C.; Plates were washed four times with 300 μl/well washing buffer (1×PBST, diluted from 20×PBST (Thermo Scientific) with distilled water)) and then blocked with 300 μl/well of blocking buffer (1×PBST/3% BSA) for 2 hours at RT on shaker (100 rpm). […] Plates were washed and added with 100 μl/well TMB substrate for color development at room temperature in dark for up to 10 minutes. After addition of 50 μl/well of stop solution (1N H₂SO₄), plates were read at 450 nm on a plate reader (SpectraMax M5).

In test [7] the target is T2, human PD-L1 expressed on cell surface. In words: cell-based or functional assay. This is another data set of the same source.

T2 sequence (Q9NZQ7 19-290 limits assumed): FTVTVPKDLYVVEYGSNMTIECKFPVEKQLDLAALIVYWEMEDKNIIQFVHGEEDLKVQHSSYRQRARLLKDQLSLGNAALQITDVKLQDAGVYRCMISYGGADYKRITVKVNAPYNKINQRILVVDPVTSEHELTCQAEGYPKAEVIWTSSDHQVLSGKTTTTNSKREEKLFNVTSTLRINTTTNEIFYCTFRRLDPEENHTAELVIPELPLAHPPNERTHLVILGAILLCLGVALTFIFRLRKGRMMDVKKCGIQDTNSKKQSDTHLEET
T3 sequence (Q9NZQ7 19-238): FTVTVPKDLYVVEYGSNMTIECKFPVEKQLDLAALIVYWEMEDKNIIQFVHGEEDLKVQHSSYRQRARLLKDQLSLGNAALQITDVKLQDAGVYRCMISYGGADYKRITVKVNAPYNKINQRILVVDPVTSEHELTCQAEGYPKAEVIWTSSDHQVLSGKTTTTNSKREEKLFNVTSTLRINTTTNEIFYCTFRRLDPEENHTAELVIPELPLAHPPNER
T4 sequence (Q9NZQ7 other isoform, or with tags, fused parts or gaps C08H C08H limits assumed): as the sequence (Q9NZQ7 19-238) above, with A33T, A34S, S62N, R68Q, Q82R, F173L, T185A, T192I, H215L counted along it

B1: 33E8 (antibody, human IgG1, V domains shown)
VH: QSLEESGGDLVKPGASLTLTCTASGFYFSSGYDMSWVRQAPGKGLEWIASIFTTSGSTWYANWAKGRFTISKTSSTTVTLQMTSLTDADTATYFCTKDGVGSFYMNLWGPGTLVTVSS
VL: LVMTQTPASVEVAVGGTVTIKCQASQTIGSNLAWYQQRPGQPPKLLIYKAFTLASGVSSRFKGSGSGTQFTLTISGVECADAATYYCQQGATRINIDNAFGGGTEVVVK
Take B1: in test [1], the binding result is reported as “no binding”. Besides, the “IC50 (nM), Promega PD-1/PD-L1 blockade reporter assay, another assay” value (shortened to “IC50 (nM) … another assay”) in test [2] is 0.38 nM. Besides, in test [3], a half-maximal response (EC50) required 0.0399 nM. Moreover, in test [4], the dissociation constant Kd stood at 0.93 nM, the koff was 0.000202 s⁻¹ and the association rate constant (kon) is 218000 M⁻¹ s⁻¹. For the same molecule, in test [5], binding was put at a Kd of 1.16 nM, the koff is 0.000418 s⁻¹ and the kon was determined as 361000 M⁻¹ s⁻¹. In addition, in test [6], the IC50 turned out to be 3.1 nM.

B2: 74A9 (antibody, human IgG1, V domains shown)
VH: QSVEESGGRLVTPGTPLTLTCAVSGFSLSTYALGWVRQAPGKGLEWIGSISIGGATYYASWAKGRFTISKTSTTVDLKIASPTTEDTATYFCARNVDSIYLDAFHTWGPGTLVTVSL
VL: DIVMTQTPASVEAAVGGTVTIKCQASQNIYNNLAWYQQKPGQPPKLLIYRASTLASGVPSRFKGSGSGTEYTLTISDLECDDAATYYCQTYYLTTTTNAFGGGTEVVVK
Turning to B2, the binding result in test [1] is “no binding”. Further, in test [7], the “IC50 (nM), Promega PD-1/PD-L1 blockade reporter assay” value was 0.29 nM. The “IC50 (nM) … another assay” value in test [2] was determined as 0.46 nM. This molecule had an EC50 in test [3] of 0.0229 nM. In test [4], this molecule displayed a Kd of 3.09 nM, a koff of 0.000915 s⁻¹ and a kon of 296000 M⁻¹ s⁻¹. In test [5], this molecule came in with a Kd of 0.36 nM, a koff of 0.000234 s⁻¹ and an on-rate constant (kon) of 643000 M⁻¹ s⁻¹. Moreover, in test [6], the IC50 is 2.3 nM.

B3: 56E5 (antibody, human IgG1, V domains shown)
VH: QEQLEESGGGLVQPEGSLTLTCTASGFSFSGDYYMSWVRQAPGKGLEWIASIYTGSLNTYYATWAKGRFTISLTSSTTVTLQMTSLTAADTATYFCARRHKNADYGHFDLWGPGTLVTVSS
VL: YDMTQTPGSVEVAVGGTVTIKCQASQSINDRLAWYQQTPGQPPKLLIYGASTLASGVPSRFKGSGSGTEFTLTISDLECADAATYYCQQGWTVSSLDNAFGGGTEVVAK
With B3, the binding result in test [1] is given as “no binding”. Also, the “IC50 (nM), Promega PD-1/PD-L1 blockade reporter assay” value in test [7] was 0.41 nM. Moreover, in test [3], the EC50 was found to be 0.0184 nM. In test [4], this molecule had an equilibrium dissociation constant (Kd) of at most 0.03 nM, a koff of at most 1e-05 s⁻¹ and an association rate constant (kon) of 313000 M⁻¹ s⁻¹. In test [5], this molecule yielded an equilibrium dissociation constant (Kd) of 0.75 nM, an off-rate constant (koff) of 0.00056 s⁻¹ and a kon of 748000 M⁻¹ s⁻¹.

B4: 57B10 (antibody, human IgG1, V domains shown)
VH: QEQLEESGGGLVQPEGSLTLTCTASGFSFSDDYYMSWVRQAPGKGLEWIASIYTGSLNTYYATWAKGRFTISLTSSTTVTLQMTSLTAADTATYFCARRNKNADWGHFDLWGPGTLVTVSS
VL: YDMTQTPASVEVAVGGTVTIKCQASQSISTALAWYQQKPGQPPKLLIYAASTLASGVPSRFRGSGSGTDFTLTISDLECADAATYYCQQGWTVSSLDNAFGGGTEVVAM
As for B4, the binding result in test [1] is given as “no binding”. The “IC50 (nM), Promega PD-1/PD-L1 blockade reporter assay” value in test [7] is 0.47 nM. Besides, in test [3], the half-maximal effective concentration (EC50) was determined as 0.0186 nM. In test [4], this molecule returned an equilibrium dissociation constant (Kd) of 0.03 nM, a koff of 7e-06 s⁻¹ and a kon of 284000 M⁻¹ s⁻¹. In addition, in test [5], the Kd stood at 0.09 nM, the off-rate constant (koff) is 7.7e-05 s⁻¹ and the kon is 810000 M⁻¹ s⁻¹.

B5: 62E6 (antibody, human IgG1, V domains shown)
VH: QEQLEESGGDLVKPEGSLTLTCTASGFSFSGDYYMSWVRQAPGKGLEWIASIYTGSLNIYYATWAKGRFTISLTSSTTVTLQMTSLTAADTATYFCARRNKNADYGHFDLWGPGTLVTVSS
VL: YDMTQTPASVEVAVGGTVTIKCQASQSINDRLAWYQQKPRQPPKLLIYGASTLASGVPSRFKGSGSGTEFTLTISDLECVDAATYYCQQGWTVSSLDNAFGGGTEVVAK
As to B5, the binding result in test [1] is recorded as “no binding”. Moreover, the “IC50 (nM), Promega PD-1/PD-L1 blockade reporter assay” value in test [7] was found to be 0.41 nM. Besides, the concentration giving a half-maximal response (EC50) in test [3] stood at 0.024 nM. Also, in test [4], the on-rate (kon) worked out at 313000 M⁻¹ s⁻¹. In test [5], this molecule yielded a Kd of 0.43 nM, a koff of 0.000342 s⁻¹ and an association rate constant (kon) of 788000 M⁻¹ s⁻¹.

B6: 32E2 (antibody, human IgG1, V domains shown)
VH: QEQLEESGGDLVKPEGSLTLTCTASGFSFSSSYYMSWVRQAPGMGLEWIASISGGVTDNAYYASWAKGRFTVSKTSSTTVTLQLTSLTAADTATYFCARDSSSGYFFLLWGPGTLVTVSS
VL: LVMTQTPSSVSAAVGGTVTINCQASQNIYSNLAWYQQKPGQRPKLLIFGASNLRSGVPSRFKGSGSGTEYTLTISDLECADAATYYCQEGYSIGNVDNPFGGGTEVVVK
Turning to B6, in test [1], the binding result is given as “no binding”. Moreover, the EC50 in test [3] was 0.106 nM. In test [4], this molecule gave a Kd of 0.53 nM, a koff of 7e-05 s⁻¹ and a kon of 133000 M⁻¹ s⁻¹. Besides, in test [5], the Kd turned out to be 0.31 nM, the koff is 0.000113 s⁻¹ and the kon came out at 371000 M⁻¹ s⁻¹. In test [6], the concentration for half-maximal inhibition (IC50) turned out to be 7.5 nM.

B7: 27A2 (antibody, human IgG1, V domains shown)
VH: QEQLEESGGGLVQPEGSLTLTCTASGFSFSSNHYMSWVRQAPGKGLEWIGSIGVGSGITDYASWAKGRFTISKASSTTLTLQMTTLTAADTAIYFCARWTSGGGGFGLWGPGTLVTVSS
VL: QVLTQTSSPVSAAVGGTVTINCQSSQTIYSDYLFWYQQTPGQPPKLLIYQTSTLASGVPSRFKGSGSGTEFTLTISEIQCDDAATYYCQGYYSGYIWTFGGGTEVVVR
As for B7, the binding result in test [1] is recorded as “no binding”. Also, in test [7], the “IC50 (nM), Promega PD-1/PD-L1 blockade reporter assay” value amounted to 0.23 nM. Besides, in test [2], the “IC50 (nM) … another assay” value worked out at 0.35 nM. In test [3], this molecule gave an EC50 of 0.0146 nM. In test [4], this molecule returned an equilibrium dissociation constant (Kd) of 0.03 nM, a koff of 1.3e-05 s⁻¹ and a kon of 390000 M⁻¹ s⁻¹. In test [5], this molecule displayed a Kd of 0.06 nM, a koff of 3.6e-05 s⁻¹ and a kon of 643000 M⁻¹ s⁻¹. The IC50 in test [6] worked out at 1.9 nM.

B8: 33H7 (antibody, human IgG1, V domains shown)
VH: QEQLVESGGGLVQPEGSLTVTCTASGFDLSRYFYMSWVRQAPGKGLEWIASISTGSDITDYASWAKGRFTISKTSSTTVTLQMTTLTAADTAIYFCARWTSGGGGFGLWGPGTLVTVSS
VL: QVLTQTASPVSAAVGGTVTLNCQSSQSIYNNYLSWYQQRAGQPPKLLIYSTATLASGVPSRFKGSGSGTQFTLTISEIQCEDAATYYCQGYYSGYIWTFGGGTEVVVK
For B8, the binding result in test [1] is listed as “no binding”. Moreover, the “IC50 (nM), Promega PD-1/PD-L1 blockade reporter assay” value in test [7] turned out to be 0.52 nM. Moreover, in test [3], the EC50 came to 0.0171 nM. Further, in test [4], the dissociation constant (Kd) is 0.23 nM, the dissociation rate constant (koff) came to 8.1e-05 s⁻¹ and the kon was 350000 M⁻¹ s⁻¹. In test [5], this molecule had a Kd of 0.61 nM, a koff of 0.000329 s⁻¹ and a kon of 536000 M⁻¹ s⁻¹. Further, the IC50 in test [6] was found to be 2.1 nM.
